Experiments:
Integrin α5 = Integrin α5 (Homo sapiens, UniProt P05556+P08648); test: Co-immunoprecipitation of Tinagl1 / Tinagl1 mutants with integrin α5 subunit; format: binding; details: LM2 cells expressing Tinagl1-HA
Description: (§1) The functional domains of the Tinagl1 protein were mapped against EGFR, Integrin β1, and Integrin α5, and the results can be seen in Table 1, below. Specifically, it can be seen that the signal peptide (11) and Somatomedin B domain (12) are required to interact with EGFR, Integrin, and Integrin.
(§2) Immunoprecipitation (IP) and western blotting (WB) analysis. For an IP experiment, cells were collected in 1.5 ml EP tube when they reached to 100% confluency in 10 or 15 cm dish as indicated. 1 ml of IP lysis buffer (20 mM Tris pH7.4, 0.15 M NaCl, 1 mM EDTA, 1 mM EGTA, 1% Tx-100) with complete protease inhibitor cocktail (Roche, 14493900) was added and put on ice for 20 min. Meanwhile, culture media was 100× concentrated and mixed with the cell lysates. The samples were centrifuged, 100 μl of the supernatant was transferred to a new tube as input, and the rest was incubated with 2 μg of IgG, anti-HA, anti-Myc, anti-Integrin subunit β1, anti-Integrin subunit α5 or anti-EGFR (as indicated in each experiment) overnight at 4° C. (recombinant proteins may be added at this step as indicated in each experiment). 30 μL of protein A/G agarose beads (Santa Cruz, sc-2003) was then added in each sample for another 2 hours at 4° C. the next day. The beads were then washed for 5 times with IP lysis buffer. […] The IP samples were washed with PBS and analyzed with WB. […]

Integrin β1 = Integrin β1 (Homo sapiens, UniProt P05556); test: Co-immunoprecipitation of Tinagl1 / Tinagl1 mutants with integrin β1 subunit; format: binding; details: LM2 cells with Tinagl1-HA stably expressed
Integrin β1, sequence (P05556 21-798): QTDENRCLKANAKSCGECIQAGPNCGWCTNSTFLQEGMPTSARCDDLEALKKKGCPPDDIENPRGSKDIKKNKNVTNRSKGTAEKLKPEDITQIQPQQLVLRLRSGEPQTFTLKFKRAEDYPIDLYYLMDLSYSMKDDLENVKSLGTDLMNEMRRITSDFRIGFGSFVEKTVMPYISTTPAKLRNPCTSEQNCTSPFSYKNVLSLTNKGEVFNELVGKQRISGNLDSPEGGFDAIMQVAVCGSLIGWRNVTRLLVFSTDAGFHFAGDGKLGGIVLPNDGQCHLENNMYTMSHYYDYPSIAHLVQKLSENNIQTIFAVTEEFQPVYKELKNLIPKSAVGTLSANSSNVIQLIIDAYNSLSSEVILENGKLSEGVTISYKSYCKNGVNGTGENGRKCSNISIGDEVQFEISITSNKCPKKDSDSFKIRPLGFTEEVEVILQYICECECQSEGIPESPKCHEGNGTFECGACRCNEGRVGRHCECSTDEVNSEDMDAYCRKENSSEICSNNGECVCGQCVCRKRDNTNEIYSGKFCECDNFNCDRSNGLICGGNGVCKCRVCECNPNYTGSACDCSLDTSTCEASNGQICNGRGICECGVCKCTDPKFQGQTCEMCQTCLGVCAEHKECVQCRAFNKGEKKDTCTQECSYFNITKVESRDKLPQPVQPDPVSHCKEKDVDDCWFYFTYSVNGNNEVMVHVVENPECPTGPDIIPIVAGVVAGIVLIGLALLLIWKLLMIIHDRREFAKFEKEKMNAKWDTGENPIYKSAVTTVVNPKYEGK
Integrin β1, sequence (P08648 42-894 partner limits assumed): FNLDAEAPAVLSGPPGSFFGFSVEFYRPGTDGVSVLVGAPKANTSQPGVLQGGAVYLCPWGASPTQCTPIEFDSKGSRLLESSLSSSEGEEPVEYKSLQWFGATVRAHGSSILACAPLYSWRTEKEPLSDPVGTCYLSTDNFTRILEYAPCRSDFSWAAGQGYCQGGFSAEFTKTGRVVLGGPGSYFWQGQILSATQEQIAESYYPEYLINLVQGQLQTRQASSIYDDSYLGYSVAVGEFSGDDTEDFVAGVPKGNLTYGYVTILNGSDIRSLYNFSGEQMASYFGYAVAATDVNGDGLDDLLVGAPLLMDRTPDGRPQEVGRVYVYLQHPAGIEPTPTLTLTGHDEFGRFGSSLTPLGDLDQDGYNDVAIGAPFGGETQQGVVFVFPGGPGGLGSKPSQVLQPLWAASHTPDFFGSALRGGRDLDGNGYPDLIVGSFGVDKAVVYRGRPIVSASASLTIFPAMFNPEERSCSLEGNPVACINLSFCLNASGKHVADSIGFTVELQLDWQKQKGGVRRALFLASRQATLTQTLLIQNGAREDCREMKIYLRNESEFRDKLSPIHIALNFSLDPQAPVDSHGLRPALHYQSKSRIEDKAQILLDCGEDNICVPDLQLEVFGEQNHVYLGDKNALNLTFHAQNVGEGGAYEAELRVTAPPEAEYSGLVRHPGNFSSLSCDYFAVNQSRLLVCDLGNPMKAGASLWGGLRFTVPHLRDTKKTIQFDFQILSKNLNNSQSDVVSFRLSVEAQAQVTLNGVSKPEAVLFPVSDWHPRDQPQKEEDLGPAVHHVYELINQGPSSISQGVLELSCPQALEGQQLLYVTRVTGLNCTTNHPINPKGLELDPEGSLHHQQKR
Integrin β1, sequence (P08648 895-1049 partner limits assumed): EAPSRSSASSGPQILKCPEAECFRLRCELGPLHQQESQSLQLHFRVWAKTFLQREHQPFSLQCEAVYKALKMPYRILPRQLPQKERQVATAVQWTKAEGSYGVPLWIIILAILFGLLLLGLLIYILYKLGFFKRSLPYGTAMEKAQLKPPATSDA
Description: as §1, §2

EGFR = EGFR (Homo sapiens, UniProt P00533); test: Co-immunoprecipitation of Tinagl1 / Tinagl1 mutants with EGFR; format: binding; details: LM2 cells with Tinagl1-HA stably expressed
Description: as §1, §2

FAK = test: FN- or EGF-dependent FAK phosphorylation (WB); format: cell-based
Description: For WB analysis, cells were collected and lysed with IP lysis buffer described above. After boiled with SDS laemmli buffer, the samples were resolved with SDS-PAGE gel and immunoblotted with standard protocols.
FN is the major ligand for integrin α5β1 and αvβ1, and triggers integrin/FAK signal pathway after binding. FN was employed to evaluate the effects of Tinagl1 on the integrin/FAK pathway. […] Likewise, the activation of FAK by FN was attenuated in the cells overexpressing Tinagl1.

[1] = system: FN interaction with integrin subunits β1, α5, and αv; test: Competition IP between Tinagl1, FN and integrin subunits; format: binding
FN interaction with integrin subunits β1, α5, and αv, sequence (as listed by the source): as the sequence (P05556 21-798) above

integrin av subunit = molecular target: T1, integrin av subunit (Homo sapiens, UniProt P05556+P06756); test: Co-immunoprecipitation of Tinagl1 with integrin av subunit; format: binding; details: LM2 cells expressing Tinagl1-HA
T1 construct: endogenous in cells; host or cells: LM2 cells stably expressing Tinagl1-HA
Description: FIGS. 9A and 9B FIGS. 8E and 8F are images of WB analyses where LM2 cells expressing Tinagl1-HA stably were lysed and IP with IgG or anti-HA antibodies, then the IP samples were subjected to WB analysis with indicated antibodies to detect the interaction with integrin α5 subunit (9A) and integrin av subunit (9B).
as §2

FN = FN (Homo sapiens, UniProt P02751); test: IP of Tinagl1-HA with FN; format: binding; details: IP-Mass, IP/WB
FN, sequence (P02751 32-2477): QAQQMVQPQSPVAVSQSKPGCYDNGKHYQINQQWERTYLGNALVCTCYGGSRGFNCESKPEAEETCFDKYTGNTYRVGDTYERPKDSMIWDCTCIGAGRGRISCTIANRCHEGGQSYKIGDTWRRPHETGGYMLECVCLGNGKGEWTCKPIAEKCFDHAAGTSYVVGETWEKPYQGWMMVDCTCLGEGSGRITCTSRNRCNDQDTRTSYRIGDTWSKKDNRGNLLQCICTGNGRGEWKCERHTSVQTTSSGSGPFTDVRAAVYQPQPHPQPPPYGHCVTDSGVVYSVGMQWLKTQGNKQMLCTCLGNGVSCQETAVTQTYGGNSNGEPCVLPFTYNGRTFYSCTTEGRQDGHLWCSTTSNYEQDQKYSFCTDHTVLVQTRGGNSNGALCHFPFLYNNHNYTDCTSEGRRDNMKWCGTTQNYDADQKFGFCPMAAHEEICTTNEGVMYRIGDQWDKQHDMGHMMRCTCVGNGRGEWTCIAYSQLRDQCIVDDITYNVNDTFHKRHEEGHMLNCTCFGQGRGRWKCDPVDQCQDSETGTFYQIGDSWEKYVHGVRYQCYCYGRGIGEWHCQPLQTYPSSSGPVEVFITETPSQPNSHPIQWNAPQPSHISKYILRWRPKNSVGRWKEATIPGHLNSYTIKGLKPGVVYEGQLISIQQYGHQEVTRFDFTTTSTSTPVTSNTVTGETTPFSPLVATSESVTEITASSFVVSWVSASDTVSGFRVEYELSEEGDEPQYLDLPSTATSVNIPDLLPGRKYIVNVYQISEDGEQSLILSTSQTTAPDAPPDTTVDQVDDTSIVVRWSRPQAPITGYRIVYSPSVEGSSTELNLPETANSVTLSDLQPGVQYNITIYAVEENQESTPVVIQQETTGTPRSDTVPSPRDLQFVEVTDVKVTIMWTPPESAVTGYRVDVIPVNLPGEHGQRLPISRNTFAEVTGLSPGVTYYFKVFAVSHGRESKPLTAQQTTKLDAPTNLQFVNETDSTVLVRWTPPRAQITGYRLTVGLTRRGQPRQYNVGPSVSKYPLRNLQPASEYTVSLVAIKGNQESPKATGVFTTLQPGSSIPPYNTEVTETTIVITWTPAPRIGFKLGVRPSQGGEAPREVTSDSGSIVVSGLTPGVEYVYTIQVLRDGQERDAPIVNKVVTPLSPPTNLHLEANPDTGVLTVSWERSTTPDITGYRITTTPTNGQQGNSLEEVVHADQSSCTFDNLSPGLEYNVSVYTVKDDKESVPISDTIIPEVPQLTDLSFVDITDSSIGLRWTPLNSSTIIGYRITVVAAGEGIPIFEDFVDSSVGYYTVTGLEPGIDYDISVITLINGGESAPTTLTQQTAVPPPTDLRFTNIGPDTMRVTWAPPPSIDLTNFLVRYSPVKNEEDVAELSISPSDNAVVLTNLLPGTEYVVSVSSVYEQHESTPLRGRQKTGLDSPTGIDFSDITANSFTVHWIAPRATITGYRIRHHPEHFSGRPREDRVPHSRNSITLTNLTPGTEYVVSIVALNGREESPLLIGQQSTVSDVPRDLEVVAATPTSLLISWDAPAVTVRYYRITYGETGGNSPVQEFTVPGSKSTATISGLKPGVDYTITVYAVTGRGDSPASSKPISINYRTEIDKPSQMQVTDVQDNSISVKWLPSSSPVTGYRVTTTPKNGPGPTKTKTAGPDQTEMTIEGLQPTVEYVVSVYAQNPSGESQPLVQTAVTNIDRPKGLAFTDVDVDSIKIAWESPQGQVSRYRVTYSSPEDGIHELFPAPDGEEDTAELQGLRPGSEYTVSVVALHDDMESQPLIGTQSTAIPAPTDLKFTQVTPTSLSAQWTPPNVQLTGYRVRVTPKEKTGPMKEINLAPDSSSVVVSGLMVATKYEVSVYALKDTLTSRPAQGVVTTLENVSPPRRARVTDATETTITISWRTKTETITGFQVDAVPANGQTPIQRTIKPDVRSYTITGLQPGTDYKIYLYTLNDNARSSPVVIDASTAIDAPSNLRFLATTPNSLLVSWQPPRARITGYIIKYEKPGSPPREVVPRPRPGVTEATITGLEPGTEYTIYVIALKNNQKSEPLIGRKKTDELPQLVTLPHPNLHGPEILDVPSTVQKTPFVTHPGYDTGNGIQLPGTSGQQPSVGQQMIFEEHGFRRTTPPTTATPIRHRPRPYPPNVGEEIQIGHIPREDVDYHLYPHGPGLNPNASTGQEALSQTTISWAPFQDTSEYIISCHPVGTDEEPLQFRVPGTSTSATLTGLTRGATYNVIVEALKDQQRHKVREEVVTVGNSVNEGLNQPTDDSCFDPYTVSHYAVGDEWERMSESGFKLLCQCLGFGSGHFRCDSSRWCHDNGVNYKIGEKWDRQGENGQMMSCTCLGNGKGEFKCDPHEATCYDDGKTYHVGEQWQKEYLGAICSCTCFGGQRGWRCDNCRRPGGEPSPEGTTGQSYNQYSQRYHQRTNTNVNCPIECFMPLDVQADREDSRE
Description: FIG. 15B is an image of WB analyses where 5 μg of FN was added into the lysate of HEK293T cells expressing Tinagl1-HA, then the lysate was immunoprecipitated with indicated antibodies, followed by WB analysis.

EGF = molecular target: T2, EGF (Homo sapiens, UniProt P01133); test: Co-immunoprecipitation of Tinagl1-HA with recombinant EGF; format: binding; details: 5 μg r-EGF added into lysate
T2 construct: 5 μg of recombinant EGF (r-EGF) was added into the lysate
Description: FIG. 13A is an image of IP and WB assays where EK293T cells expressing Tinagl1-HA were lysed and 5 μg of recombinant EGF (r-EGF) was added into the lysate, which was then subjected to the assays.
Tinagl1 inhibits EGFR and integrin/FAK signaling pathways with distinct mechanisms. The interaction between EGFR and EGF causes conformational changes in EGFR, leading to EGFR dimerization, phosphorylation, and activation. Previous studies identified an EGFR antagonist, MIF, which competes with EGF for binding to EGFR and subsequently blocks its activation. Whether Tinagl1 inhibits EGFR activation in a similar manner was tested. […] Whether Tinagl1 and EGF compete with each other to interact with EGFR was tested. […] As a positive control, r-Tinagl1 competed with expressed Tinagl1-HA to interact with EGFR.

[2] = molecular target: T3, mutant integrin β1 subunit (β1-M) (Homo sapiens, UniProt P05556, DEL130-240); test: IP of Tinagl1-HA with mutant integrin β1 subunit; format: binding; details: HEK293T cells
T3 construct: host or cells: HEK293T
T3 sequence (P05556 with tags, fused parts or gaps DEL130-240): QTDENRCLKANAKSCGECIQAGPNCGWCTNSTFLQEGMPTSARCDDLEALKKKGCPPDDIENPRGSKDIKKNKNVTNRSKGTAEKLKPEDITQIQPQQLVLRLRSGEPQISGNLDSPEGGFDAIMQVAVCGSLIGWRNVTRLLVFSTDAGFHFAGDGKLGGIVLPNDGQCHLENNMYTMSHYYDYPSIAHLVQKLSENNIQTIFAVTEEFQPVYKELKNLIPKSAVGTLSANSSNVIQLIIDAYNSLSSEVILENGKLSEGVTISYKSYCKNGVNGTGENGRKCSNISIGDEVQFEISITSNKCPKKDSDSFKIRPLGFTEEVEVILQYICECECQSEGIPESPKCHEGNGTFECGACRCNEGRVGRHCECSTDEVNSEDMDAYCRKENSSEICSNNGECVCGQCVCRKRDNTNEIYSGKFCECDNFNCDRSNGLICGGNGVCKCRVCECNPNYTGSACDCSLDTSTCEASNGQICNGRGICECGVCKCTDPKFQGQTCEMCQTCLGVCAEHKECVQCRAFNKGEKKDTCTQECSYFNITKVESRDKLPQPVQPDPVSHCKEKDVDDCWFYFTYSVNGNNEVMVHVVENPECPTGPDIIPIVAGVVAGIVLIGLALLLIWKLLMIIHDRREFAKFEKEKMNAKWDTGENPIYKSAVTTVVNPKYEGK

Integrin α5, sequence (P08648 42-894 limits assumed): as the sequence (P08648 42-894 partner limits assumed) above
Integrin α5, sequence (P08648 895-1049 limits assumed): as the sequence (P08648 895-1049 partner limits assumed) above
Integrin α5, sequence (P05556 21-798): as the sequence (P05556 21-798) above

B1: Tinagl1: Tubulointerstitial nephritis antigen like 1, secreted extracellular protein; in IP experiments expressed with C-terminal HA tag (protein, listed as Homo sapiens)
chain: MWRCPLGLLLLLPLAGHLALGAQQGRGRRELAPGLHLRGIRDAGGRYCQEQDLCCRGRADDCALPYLGAICYCDLFCNRTVSDCCPDFWDFCLGVPPPFPPIQGCMHGGRIYPVLGTYWDNCNRCTCQENRQWQCDQEPCLVDPDMIKAINQGNYGWQAGNHSAFWGMTLDEGIRYRLGTIRPSSSVMNMHEIYTVLNPGEVLPTAFEASEKWPNLIHEPLDQGNCAGSWAFSTAAVASDRVSIHSLGHMTPVLSPQNLLSCDTHQQQGCRGGRLDGAWWFLRRRGVVSDHCYPFSGRERDEAGPAPPCMMHSRAMGRGKRQATAHCPNSYVNNNDIYQVTPVYRLGSNDKEIMKELMENGPVQALMEVHEDFFLYKGGIYSHTPVSLGRPERYRRHGTHSVKITGWGEETLPDGRTLKYWTAANSWGPAWGERGHFRIVRGVNECDIESFVLGVWGRVGMEDMGHH
modifications: C-terminal HA tag in IP
notes: Tubulointerstitial nephritis antigen like 1, secreted extracellular protein; in IP experiments expressed with C-terminal HA tag
**Q.** With B1 as the molecule, how does the “interaction with integrin α5 subunit (co-IP)” value (Integrin α5) read?
**A.** The value was “strongly interacted”.

**Q.** What about the “interaction with integrin β1 subunit (co-IP)” value (Integrin β1) of the same molecule?
**A.** The value was “confirmed the interaction”.

**Q.** And the “interaction with EGFR (co-IP)” value (EGFR)?
**A.** The value was “confirmed the interaction”.

**Q.** What about the “EGF-induced FAK phosphorylation (Tyr925)” value (FAK) of the same molecule?
**A.** Its value is “blocks this specific effect of EGF on FAK activation”.

**Q.** What about the “interaction of subunits α5 or av with FN” value [1] of the same molecule?
**A.** Its value is “did not compete”.

**Q.** And the “interaction of FN with integrin β1 subunit” value ([1]; tested at 1, 2.5, and 5 μg)?
**A.** Its value is “competitively reduced”.

**Q.** What about the “interaction with integrin av subunit (co-IP)” value (integrin av subunit) of the same molecule?
**A.** Its value is “strongly interacted”.

**Q.** What about the “interaction with FN” value (FN) of the same molecule?
**A.** Its value is “interacted with FN”.

**Q.** And the “interaction between Tinagl1 and EGF” value (EGF)?
**A.** The value was “failed to detect any interaction”.

**Q.** What about the “interaction with mutant β1 subunit (deletion of aa 130-240)” value [2] of the same molecule?
**A.** Its value is “cannot interact”.

From US20210379147A1, “METHOD AND SYSTEM FOR TREATING CANCER UTILIZING TINAGL1” (The Trustees of Princeton University, priority 2018, published 2021)
